Assay results reported in the supplement of paper PMC9112550, “Optimization of the antimicrobial peptide Bac7 by deep mutational scanning” (BMC Biology, 2022).

test system: Escherichia coli TOP10; experiment: shrunken log2 fold change of peptide-encoding DNA abundance (4.5 h post-induction vs induction); higher = less antimicrobial activity (less host growth inhibition); settings: time post-induction: 4.5 h; library: site-saturation at positions 5, 18, 19, 20
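Also: peptides expressed intracellularly from a pBAD plasmid library in pooled LB shake-flask culture, induced with 0.3% L-arabinose, DNA abundance read by NGS, three biological replicates, DESeq2 with apeglm shrinkage.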

Sequence | shrunken log2 fold change
RRIRDRPPRLPRPRPRPAFFPRP | 0.342
RRIRKRPPRLPRPRPRPWDHPRP | -0.0434
RRIRARPPRLPRPRPRPYINPRP | -0.413
RRIRKRPPRLPRPRPRPTGYPRP | 0.214
RRIRIRPPRLPRPRPRPWTNPRP | -0.00152
RRIRDRPPRLPRPRPRPVHNPRP | -0.585
RRIRTRPPRLPRPRPRPIEAPRP | -0.199
RRIRDRPPRLPRPRPRPCYIPRP | 0.0176
RRIRERPPRLPRPRPRPHMTPRP | 0.0464
RRIRSRPPRLPRPRPRPMISPRP | -0.453
RRIRLRPPRLPRPRPRPIQYPRP | 0.147
RRIRMRPPRLPRPRPRPTLFPRP | 0.428
RRIRGRPPRLPRPRPRPFSHPRP | -0.153
RRIRHRPPRLPRPRPRPEPQPRP | 0.39
RRIRNRPPRLPRPRPRPTEVPRP | -0.268
RRIRARPPRLPRPRPRPEQPPRP | 0.343
RRIRNRPPRLPRPRPRPRFMPRP | -0.098
RRIRRRPPRLPRPRPRPPGMPRP | 0.821
RRIRFRPPRLPRPRPRPGCNPRP | -0.292
RRIRNRPPRLPRPRPRPTPYPRP | -0.243
RRIRMRPPRLPRPRPRPFWFPRP | 0.132
RRIRQRPPRLPRPRPRPGNPPRP | -0.132
RRIRPRPPRLPRPRPRPWMDPRP | -0.934
RRIRPRPPRLPRPRPRPTDKPRP | 0.0429
RRIRCRPPRLPRPRPRPSCDPRP | -0.0533

Sequence | shrunken log2 fold change
RRIRTRPPRLPRPRPRPHWTPRP | -0.0902
RRIRHRPPRLPRPRPRPAEIPRP | 0.000898
RRIRVRPPRLPRPRPRPMPWPRP | 0.056
RRIRHRPPRLPRPRPRPTFVPRP | -0.152
RRIRARPPRLPRPRPRPLHFPRP | 0.211
RRIRARPPRLPRPRPRPLNNPRP | -0.346
RRIRKRPPRLPRPRPRPFCCPRP | 0.27
RRIRNRPPRLPRPRPRPKSCPRP | -0.0533
RRIRNRPPRLPRPRPRPYNTPRP | -1.49
RRIRRRPPRLPRPRPRPFYWPRP | -0.34
RRIRNRPPRLPRPRPRPFQIPRP | -0.121
RRIRDRPPRLPRPRPRPDQPPRP | -0.00151
RRIRWRPPRLPRPRPRPGPSPRP | 0.223
RRIRSRPPRLPRPRPRPWLGPRP | -0.092
RRIRIRPPRLPRPRPRPLCPPRP | -0.502
RRIRCRPPRLPRPRPRPYWKPRP | -0.737
RRIRGRPPRLPRPRPRPGPVPRP | 1.24
RRIRIRPPRLPRPRPRPGQSPRP | 0.0669
RRIRARPPRLPRPRPRPVYRPRP | 0.144
RRIRDRPPRLPRPRPRPANHPRP | -0.438
RRIRFRPPRLPRPRPRPKYWPRP | -0.176
RRIRARPPRLPRPRPRPRVSPRP | 0.492
RRIRGRPPRLPRPRPRPMYHPRP | -0.242
RRIRYRPPRLPRPRPRPCMDPRP | -0.214
RRIRMRPPRLPRPRPRPVAPPRP | 0.945

Sequence | shrunken log2 fold change
RRIRQRPPRLPRPRPRPMHPPRP | 0.203
RRIRGRPPRLPRPRPRPPCRPRP | 0.637
RRIRRRPPRLPRPRPRPVRKPRP | -0.0548
RRIRIRPPRLPRPRPRPIGHPRP | -0.0672
RRIRMRPPRLPRPRPRPVENPRP | -0.0952
RRIRYRPPRLPRPRPRPNHFPRP | -0.0628
RRIRHRPPRLPRPRPRPVLNPRP | 0.157
RRIRQRPPRLPRPRPRPMRAPRP | 0.235
RRIRLRPPRLPRPRPRPYSWPRP | -0.176
RRIRLRPPRLPRPRPRPMFEPRP | -0.00818
RRIRFRPPRLPRPRPRPSAGPRP | 0.192
RRIRDRPPRLPRPRPRPQVYPRP | 0.175
RRIRCRPPRLPRPRPRPRDPPRP | 0.864
RRIRLRPPRLPRPRPRPGCEPRP | 0.409
RRIRNRPPRLPRPRPRPENGPRP | -0.0225
RRIRYRPPRLPRPRPRPFIFPRP | -1.01
RRIRERPPRLPRPRPRPVIAPRP | -0.205
RRIRQRPPRLPRPRPRPTWFPRP | 0.104
RRIRPRPPRLPRPRPRPGYAPRP | 0.177
RRIRRRPPRLPRPRPRPFDFPRP | -0.146
RRIRYRPPRLPRPRPRPFFGPRP | -0.225
RRIRQRPPRLPRPRPRPMMQPRP | -0.313
RRIRHRPPRLPRPRPRPNDWPRP | 0.339
RRIRWRPPRLPRPRPRPENHPRP | -0.176
RRIRWRPPRLPRPRPRPPSAPRP | 0.744

Sequence | shrunken log2 fold change
RRIRQRPPRLPRPRPRPTGHPRP | 0.00113
RRIRPRPPRLPRPRPRPTRTPRP | 0.508
RRIRFRPPRLPRPRPRPTIDPRP | 0.103
RRIRVRPPRLPRPRPRPRESPRP | 0.259
RRIRRRPPRLPRPRPRPFQRPRP | 0.608
RRIRARPPRLPRPRPRPKSVPRP | 0.0188
RRIRFRPPRLPRPRPRPRMVPRP | -0.157
RRIRHRPPRLPRPRPRPAETPRP | -0.074
RRIRLRPPRLPRPRPRPCAQPRP | -0.161
RRIRARPPRLPRPRPRPMVIPRP | 0.0235
RRIRSRPPRLPRPRPRPFACPRP | -0.655
RRIRKRPPRLPRPRPRPIWNPRP | -0.0253
RRIRERPPRLPRPRPRPSYVPRP | -0.264
RRIRDRPPRLPRPRPRPWHVPRP | 0.015
RRIRDRPPRLPRPRPRPACFPRP | 0.664
RRIRQRPPRLPRPRPRPMQYPRP | -0.309
RRIRVRPPRLPRPRPRPAQEPRP | 0.0593
RRIRTRPPRLPRPRPRPIFNPRP | -0.608
RRIRKRPPRLPRPRPRPIGEPRP | -0.0126
RRIRARPPRLPRPRPRPTGDPRP | 0.604
RRIRVRPPRLPRPRPRPNYQPRP | -0.699
RRIRMRPPRLPRPRPRPTGEPRP | 0.0299
RRIRLRPPRLPRPRPRPRHFPRP | -0.131
RRIRARPPRLPRPRPRPHDIPRP | -0.08
RRIRPRPPRLPRPRPRPTTHPRP | 0.0944

Sequence | shrunken log2 fold change
RRIRHRPPRLPRPRPRPPQKPRP | 0.0508
RRIRGRPPRLPRPRPRPHHYPRP | -0.524
RRIRIRPPRLPRPRPRPLYPPRP | -0.561
RRIRLRPPRLPRPRPRPPFMPRP | 0.086
RRIRLRPPRLPRPRPRPGETPRP | -0.0544
RRIRARPPRLPRPRPRPCIKPRP | 0.126
RRIRHRPPRLPRPRPRPRQWPRP | 0.408
RRIRKRPPRLPRPRPRPRGHPRP | 0.189
RRIRVRPPRLPRPRPRPHGCPRP | -0.041
RRIRFRPPRLPRPRPRPFAPPRP | 0.0349
RRIRNRPPRLPRPRPRPYCVPRP | -0.172
RRIRIRPPRLPRPRPRPGPEPRP | 0.342
RRIRQRPPRLPRPRPRPKHYPRP | -0.223
RRIRERPPRLPRPRPRPWHIPRP | -0.169
RRIRYRPPRLPRPRPRPKLQPRP | 0.124
RRIRRRPPRLPRPRPRPQPKPRP | 0.761
RRIRLRPPRLPRPRPRPWGGPRP | 1.94
RRIRGRPPRLPRPRPRPSVCPRP | 0.159
RRIRCRPPRLPRPRPRPKSGPRP | 0.017
RRIRNRPPRLPRPRPRPSCMPRP | -0.755
RRIRPRPPRLPRPRPRPMSYPRP | 0.296
RRIRMRPPRLPRPRPRPEESPRP | 0.113
RRIRTRPPRLPRPRPRPISTPRP | -0.504
RRIRLRPPRLPRPRPRPPECPRP | -0.29
RRIRQRPPRLPRPRPRPLYPPRP | -0.228
